Measurements taken from the Immune Epitope Database (IEDB).

Assays:
[1] = molecular target: HLA-A*11:01; assay: IEDB peptide-MHC binding, purified MHC/competitive/fluorescence; ≥ and ≤ were set here for values at or beyond the usual limits of such assays
[2] = molecular target: HLA-A*02:03; assay: IEDB peptide-MHC binding, purified MHC/direct/fluorescence; filed as Kd, often an IC50 or EC50 that approximates it; ≥ and ≤ were set here for values at or beyond the usual limits of such assays
[3] = molecular target: HLA-A*02:11; assay: as above
[4] = molecular target: HLA-A*02:12; assay: as above
[5] = molecular target: HLA-A*02:19; assay: as above
[6] = molecular target: HLA-A*03:01; assay: as above
[7] = molecular target: HLA-A*11:01; assay: as above
[8] = molecular target: HLA-A*68:02; assay: as above
[9] = molecular target: HLA-A*02:01; assay: IEDB peptide-MHC binding, purified MHC/competitive/fluorescence; filed as Kd, often an IC50 or EC50 that approximates it; ≥ and ≤ were set here for values at or beyond the usual limits of such assays
[10] = molecular target: HLA-A*26:01; assay: as above
[11] = molecular target: HLA-A*69:01; assay: as above
[12] = molecular target: HLA-B*15:17; assay: as above
[13] = molecular target: HLA-B*18:01; assay: as above
[14] = molecular target: HLA-B*27:03; assay: as above
[15] = molecular target: HLA-B*39:01; assay: as above
[16] = molecular target: HLA-B*46:01; assay: as above
[17] = molecular target: HLA-B*51:01; assay: as above
[18] = molecular target: HLA-B*57:01; assay: as above
[19] = molecular target: HLA-A*31:01; assay: as above
[20] = molecular target: HLA-A*02:01; assay: IEDB peptide-MHC binding, purified MHC/competitive/fluorescence; ≥ and ≤ were set here for values at or beyond the usual limits of such assays; details: source organism: Zaire ebolavirus
[21] = molecular target: HLA-A*24:02; assay: as above; details: source organism: Zaire ebolavirus
[22] = molecular target: HLA-B*15:01; assay: as above; details: source organism: Zaire ebolavirus
[23] = molecular target: HLA-A*02:01; assay: IEDB peptide-MHC binding, purified MHC/direct/fluorescence; filed as Kd, often an IC50 or EC50 that approximates it; ≥ and ≤ were set here for values at or beyond the usual limits of such assays
[24] = molecular target: HLA-A*69:01; assay: as above; details: source organism: Amur virus
[25] = molecular target: HLA-A*68:02; assay: IEDB peptide-MHC binding, purified MHC/competitive/fluorescence; filed as Kd, often an IC50 or EC50 that approximates it; ≥ and ≤ were set here for values at or beyond the usual limits of such assays; details: source organism: Salmonella enterica subsp. enterica serovar Typhi
[26] = molecular target: HLA-B*15:17; assay: IEDB peptide-MHC binding, purified MHC/direct/fluorescence; filed as Kd, often an IC50 or EC50 that approximates it; ≥ and ≤ were set here for values at or beyond the usual limits of such assays
[27] = molecular target: HLA-B*57:01; assay: as above
[28] = molecular target: HLA-B*58:01; assay: as above
[29] = molecular target: HLA-A*01:01; assay: as above; details: source organism: Reston ebolavirus - Reston
[30] = molecular target: HLA-A*29:02; assay: as above
[31] = molecular target: HLA-A*31:01; assay: as above; details: source organism: Reston ebolavirus - Reston
[32] = molecular target: HLA-B*08:01; assay: as above; details: source organism: Reston ebolavirus - Reston
[33] = molecular target: HLA-B*15:01; assay: as above; details: source organism: Reston ebolavirus - Reston
[34] = molecular target: HLA-B*18:01; assay: as above; details: source organism: Reston ebolavirus - Reston
[35] = molecular target: HLA-B*27:05; assay: as above; details: source organism: Reston ebolavirus - Reston
[36] = molecular target: HLA-B*44:02; assay: as above; details: source organism: Reston ebolavirus - Reston
[37] = molecular target: HLA-B*46:01; assay: as above; details: source organism: Reston ebolavirus - Reston
[38] = molecular target: HLA-B*48:01; assay: as above; details: source organism: Reston ebolavirus - Reston
[39] = molecular target: HLA-A*02:16; assay: as above
[40] = molecular target: HLA-A*24:03; assay: as above
[41] = molecular target: HLA-B*40:01; assay: as above; details: source organism: Itapua hantavirus
[42] = molecular target: HLA-B*15:01; assay: IEDB peptide-MHC binding, purified MHC/competitive/fluorescence; filed as Kd, often an IC50 or EC50 that approximates it; ≥ and ≤ were set here for values at or beyond the usual limits of such assays
[43] = source organism: Entamoeba histolytica HM-1:IMSS
[44] = source organism: Entamoeba dispar SAW760
[45] = source organism: Bacillus anthracis
[46] = source organism: Rickettsia sibirica
[47] = source organism: Yersinia pestis Antiqua
[48] = source organism: West Nile virus
[49] = source organism: Reston ebolavirus - Reston
[50] = source organism: Reston ebolavirus - Reston (1989)
[51] = source organism: Four Corners hantavirus
[52] = source organism: Salmonella enterica subsp. enterica serovar Typhimurium str. LT2

AAGIAWIPY gave an IC50 ([1]; source organism: Sudan ebolavirus) of 29.6 µM.
Sequence STYQFSLMQ has a Kd [2, 43] of at least 20 µM, a Kd [3, 43] of at least 20 µM and a Kd [4, 43] of at least 20 µM. The Kd [5, 43] was at least 20 µM, the Kd [6, 43] was at least 20 µM and the Kd [7, 43] was at least 20 µM. The Kd [8, 43] was at least 20 µM, the Kd [9, 44] was at least 20 µM and the Kd [10, 44] was at least 20 µM. It also gave a Kd [11, 44] of at least 20 µM, a Kd [12, 44] of at least 20 µM and a Kd [13, 44] of at least 20 µM. The Kd [14, 44] was at least 20 µM, the Kd [15, 44] was at least 20 µM and the Kd [16, 44] was at least 20 µM. For the same sequence, the Kd [17, 44] was at least 20 µM and the Kd [18, 44] was at least 20 µM.
With GTLTKGVFK the Kd [6, 45] was 0.0549 µM, the Kd [7, 45] was 0.012 µM and the Kd ([19]; source organism: Bacillus anthracis str. A0488) was 0.0154 µM.
Sequence RTHLGFIFQ has a Kd [6, 45] of at least 20 µM, a Kd [7, 45] of at least 20 µM and a Kd ([19]; source organism: Bacillus thuringiensis str. Al Hakam) of at least 20 µM.
Work on YQGDYKLFL yielded an IC50 [20] of 0.601 µM, an IC50 ([1]; source organism: Zaire ebolavirus) of 60 µM and an IC50 [21] of 0.902 µM. It also gave an IC50 [22] of 10.8 µM.
In the case of TLTRGQNTV, the Kd ([23]; source organism: Amur virus) is reported as 0.0396 µM, the Kd ([3]; source organism: Amur virus) is reported as at least 20 µM and the Kd ([4]; source organism: Amur virus) is reported as 0.058 µM. The Kd ([5]; source organism: Amur virus) was 0.137 µM and the Kd [24] was at least 20 µM.
In the case of WVVDQNGRV, the Kd [25] is reported as 0.0179 µM.
KTWGKNLVF gave a Kd ([26]; source organism: Yellow fever virus 1899/81) of 0.0017 µM.
ASWMALGVY gave a Kd [26, 46] of 0.0239 µM, a Kd ([27]; source organism: Rickettsia sibirica 246) of at least 20 µM and a Kd [28, 46] of 1.32 µM.
KVCRSPAQK gave a Kd [6, 47] of 1.81 µM, a Kd [7, 47] of 0.115 µM and a Kd ([19]; source organism: Yersinia pestis Nepal516) of 1.64 µM.
Work on GSRAIWFMW yielded a Kd [26, 48] of 0.063 µM and a Kd [27, 48] of 0.038 µM.
With QLSLRMLSL the Kd [29] was at least 20 µM, the Kd [6, 49] was at least 20 µM and the Kd [7, 49] was at least 20 µM. It also gave a Kd [30, 49] of at least 20 µM, a Kd [31] of at least 20 µM and a Kd [32] of 0.859 µM. It also gave a Kd [33] of at least 20 µM, a Kd [34] of at least 20 µM and a Kd [35] of at least 20 µM. It also gave a Kd [36] of at least 20 µM, a Kd [37] of at least 20 µM and a Kd [38] of at least 20 µM. It also gave a Kd [27, 49] of at least 20 µM, a Kd [28, 49] of at least 20 µM and a Kd [9, 50] of at least 20 µM. The Kd [10, 50] was at least 20 µM, the Kd [11, 50] was at least 20 µM and the Kd [14, 50] was at least 20 µM. It also gave a Kd [15, 50] of at least 20 µM.
In the case of PELGAFFAI, the Kd ([2]; source organism: Choclo virus) is reported as at least 20 µM, the Kd ([3]; source organism: Choclo virus) is reported as at least 20 µM and the Kd ([4]; source organism: Choclo virus) is reported as at least 20 µM. The Kd ([39]; source organism: Choclo virus) was at least 20 µM, the Kd ([5]; source organism: Choclo virus) was at least 20 µM and the Kd ([6]; source organism: Choclo virus) was at least 20 µM. It also gave a Kd ([40]; source organism: Choclo virus) of at least 20 µM, a Kd ([30]; source organism: Choclo virus) of at least 20 µM and a Kd ([8]; source organism: Choclo virus) of at least 20 µM. It also gave a Kd [41] of 0.107 µM, a Kd [9, 51] of at least 20 µM and a Kd [10, 51] of at least 20 µM. For the same sequence, the Kd [11, 51] was at least 20 µM, the Kd [42, 51] was at least 20 µM and the Kd [12, 51] was at least 20 µM. It also gave a Kd [13, 51] of at least 20 µM, a Kd [14, 51] of at least 20 µM and a Kd [15, 51] of at least 20 µM. The Kd [16, 51] was at least 20 µM, the Kd [17, 51] was at least 20 µM and the Kd [18, 51] was at least 20 µM.
Sequence FTGEYLLRL has a Kd ([23]; source organism: Salmonella enterica subsp. enterica serovar Typhimurium) of 0.229 µM, a Kd [4, 52] of 1.04 µM and a Kd [39, 52] of at least 20 µM. For the same sequence, the Kd [5, 52] was at least 20 µM, the Kd [6, 52] was at least 20 µM and the Kd [40, 52] was at least 20 µM. The Kd [30, 52] was at least 20 µM, the Kd [8, 52] was at least 20 µM and the Kd ([10]; source organism: Homo sapiens) was at least 20 µM. For the same sequence, the Kd ([11]; source organism: Homo sapiens) was at least 20 µM, the Kd ([42]; source organism: Homo sapiens) was at least 20 µM and the Kd ([13]; source organism: Homo sapiens) was at least 20 µM. It also gave a Kd ([14]; source organism: Homo sapiens) of at least 20 µM, a Kd ([15]; source organism: Homo sapiens) of at least 20 µM and a Kd ([16]; source organism: Homo sapiens) of at least 20 µM. It also gave a Kd ([17]; source organism: Homo sapiens) of at least 20 µM and a Kd ([18]; source organism: Homo sapiens) of at least 20 µM.
VSAAGTTLR gave a Kd ([6]; source organism: Mycobacterium tuberculosis) of at least 20 µM and a Kd ([19]; source organism: Mycobacterium tuberculosis H37Rv) of 0.35 µM.
